Data on 20 sequences can be found in the supplement of paper PMC9170038.

The subject of data set [1] is MS2 coat protein. Kind of data set: apparent KD of MS2 coat protein, switch OFF state (with FMN for OFF switches, without FMN for ON switches); designed switch direction (-1 OFF switch, 1 ON switch): -1; higher = weaker reporter binding. The following applies: FMN input: 0 or 200 uM; Eterna round: R93 (includes R88 designs). The method in brief: (§1)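 Normalised binding curves from single clusters were fitted, and the median fit for each design is given as apparent KD. The clusters held designed RNA switches transcribed on-chip from Illumina sequencing clusters. These were titrated with SNAP-549-labelled MS2 coat protein (twofold steps from 0.7 or 1.5 nM to 3 µM, 0.8–1.5 h to 10–20 min per step) in 100 mM Tris-HCl pH 7.5, 80 mM KCl, 4 mM MgCl2, without or with constant ligand.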

The subject of data set [2] is MS2 coat protein. Kind of data set: apparent KD of MS2 coat protein, switch ON state; designed switch direction (-1 OFF switch, 1 ON switch): -1; higher = weaker reporter binding. The following applies: FMN input: 0 or 200 uM; Eterna round: R93 (includes R88 designs). The method in brief: as §1

“AAGAAAGCAGGAUAUACAUGAGGAUCACCCAUGUAAAAGAAAGAAGGGAAAGAGAAAAGUAGAAGGGCUAAGAA [Wehemibre Necho II]”: the figures for the “apparent KD of MS2 coat protein” value in the data set with MS2 coat protein [1] and with MS2 coat protein [2] were 38.7 nM and 20.9 nM, respectively.

As for “AAGAACACAGGAUAUACAUGAGGAUCACCCAUGUAAAAGAAAGAGGGAAAAGAGAAAAGUAGAAGGGUGAAGAA [Hugronaphor]”, the “apparent KD of MS2 coat protein” value is 31.4 nM in the data set on MS2 coat protein [1] and 33.1 nM in the data set on MS2 coat protein [2].

As for “AAGAACGCAGGAUAUACAUGAGGAUCACCCAUGUAAAAGAAAGAAAAGGGAAAGAAAAGUAGAAGGGCGAAGAA [Aakheperkare Thutmose I]”, the “apparent KD of MS2 coat protein” value in the data set with MS2 coat protein [1] was 33.1 nM; with MS2 coat protein [2], 33.9 nM.

Regarding “AAGAACGCAGGAUAUACUAAAGAAAUGAAAAGAAAUAAAGAACAUGAGGAUCACCCAUGUAGAAGGGCGAAGAA [Merdjefare]”, the “apparent KD of MS2 coat protein” value came out at 32.1 nM with MS2 coat protein [1] and 39.4 nM in the data set with MS2 coat protein [2].

As for “AAGAACGUAGGAUAUACAUGAAAGAAAGAAAAGAAAAGAAAACAUGAGGAUCACCCAUGUAGAAGGACGUAGAA [EteRNA is fun!]”, the “apparent KD of MS2 coat protein” value turned out to be 22.1 nM in the data set with MS2 coat protein [1] and 20 nM with MS2 coat protein [2].

With “AAGAAGAGAGGAUAUACAUGAGGAUCACCCAUGUAAAAGAAAGAGGGAAAAGAGAAAAGUAGAAGGCUCAAGAA [Arsinoe II]”, the “apparent KD of MS2 coat protein” value with MS2 coat protein [1] turned out to be 37 nM; with MS2 coat protein [2], 23.9 nM.

In the case of “AAGAAGCAAGGAUAUACAUGAGGAUCACCCAUGUAAAAGAAAGAAGGGAAAGAGAAAAGUAGAAGGUGCAAGAA [Shepsesre Tefnakhte]”, the “apparent KD of MS2 coat protein” value in the data set on MS2 coat protein [1] was 30.1 nM; with MS2 coat protein [2], 25.7 nM.

For “AAGAAGCUAGGAUAUACAUGAGGAUCACCCAUGUAAAAGAAAGAAAAGGGAAAGAAAAGUAGAAGGAGCAAGAA [Menpehtire Ramesses I]”, the “apparent KD of MS2 coat protein” value in the data set with MS2 coat protein [1] is 35.6 nM; in the data set on MS2 coat protein [2] it was 28.7 nM.

“AAGAAGGAAGGAUAUACAUGAGGAUCACCCAUGUAAAAGAAAGAAAAGGGAAAGAAAAGUAGAAGGUCCAAGAA [Djeserkheperure-setpenre Horemheb]”: the “apparent KD of MS2 coat protein” value in the data set on MS2 coat protein [1] is 41.6 nM; with MS2 coat protein [2] it was 30.4 nM.

With “AAGAAGGGAGGAUAUACAUAAAAGAAAGAAAAGAAAAGAAAACAUGAGGAUCACCCAUGUAGAAGGCCCAAGAA [EteRNA is fun!]”, the “apparent KD of MS2 coat protein” value in the data set on MS2 coat protein [1] turned out to be 29.3 nM; with MS2 coat protein [2], 28.7 nM.

Regarding “AAGAAGGGAGGAUAUACUAAAGAAAUGAAAAGAAAUAAAGAACAUGAGGAUCACCCAUGUAGAAGGCCCAAGAA [Nehesy]”, the results for the “apparent KD of MS2 coat protein” value in the data set on MS2 coat protein [1] and with MS2 coat protein [2] were 24.8 nM and 29.7 nM, respectively.

For the sequence “AAGAAGUCAGGAUAUGCCAGAGAACAAGAAAGUGACGAAUAGCAGAAGGGACAUGAGGAUCACCCAUGUAAAGA [Opal 10]”, the “apparent KD of MS2 coat protein” value stood at 21.9 nM in the data set on MS2 coat protein [1] and 33.7 nM with MS2 coat protein [2].

With “AAGAAGUGAGGAUAUCGAAGACAGACGAAAAGUCUGUCAAACGAGAAGGCACAUGAGGAUCACCCAUGUGAGAA [What have we learned so far? 64% 2]”, the “apparent KD of MS2 coat protein” value was determined as 38.1 nM with MS2 coat protein [1] and 22.6 nM in the data set on MS2 coat protein [2].

With “AAGAAGUGAGGAUAUCGAAGACAGACGAAAAGUCUGUCAAACGAGAAGGCACAUGAGGAUCACCCAUGUGGGAA [What have we learned so far? 64% 3]”, the “apparent KD of MS2 coat protein” value in the data set with MS2 coat protein [1] was found to be 169 nM; in the data set with MS2 coat protein [2], 69.5 nM.

As to “AAGAAGUGAGGAUAUGUCUGUGCGAAAAAAAAAAAGUGCAGACAGAAGGCACAUGAGGAUCACCCAUGUCAAAA [Florian Witold Znaniecki]”, the entries for the “apparent KD of MS2 coat protein” value in the data set on MS2 coat protein [1] and in the data set with MS2 coat protein [2] were 39 nM and 39.4 nM, respectively.

Take “AAGAAUUCAGGAUAUACAAGGAAGAAAGAAAAGAAAAGAAAACAUGAGGAUCACCCAUGUAGAAGGGAAUAGAA [EteRNA is fun!]”: the “apparent KD of MS2 coat protein” value came to 26.6 nM in the data set on MS2 coat protein [1] and 40 nM in the data set on MS2 coat protein [2].

As for “AAGACUACAGGAUAUACAUGAGGAUCACCCAUGUAACUGACGGGUAGAUGACGGAGAAGUAGAAGGGUAGUCAA [Ruby 37]”, the “apparent KD of MS2 coat protein” value was determined as 40.6 nM with MS2 coat protein [1] and 67.2 nM in the data set with MS2 coat protein [2].

Regarding “AAGACUAGAGGAUAUACAUGAGGAUCACCCAUGUAACUGUCAGGAGACUGACGGAGAAGUAGAAGGCUAGUCAA [Mat - Exclusion 3 - JL mod - D84]”, the “apparent KD of MS2 coat protein” value turned out to be 19.4 nM with MS2 coat protein [1] and 15.8 nM with MS2 coat protein [2].

As for “AAGAGUACAGGAUAUAUAUGAAAAGAGUCGAAAGACUCAAAACAUGAGGAUCACCCAUGUAGAAGGGUACUCAA [Hyphema Seclusion Mod 62% 1]”, the “apparent KD of MS2 coat protein” value in the data set with MS2 coat protein [1] was determined as 22.9 nM; in the data set on MS2 coat protein [2], 36.8 nM.

For “AAGGUACGAGGAUAUACAUAGAUACAGAUACAUGUAGACGUACAUGAGGAUCACCCAUGUAGAAGGCGUAUAUA [AJ 24]”, the results for the “apparent KD of MS2 coat protein” value in the data set with MS2 coat protein [1] and with MS2 coat protein [2] were 83 nM and 46.8 nM, respectively.
